Data reported in the supplement of paper PMC11780869.

System: Bacillus subtilis
Test: cleaved RNA product abundance (RNA/gDNA barcode ratio) relative to median wild-type variant (ratio to wild type); higher = more accumulation of the downstream cleavage product
Procedure, shortened: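 Oligos with a 9% error rate were used to build barcoded, mutagenized RNase Y cleavage-site windows within truncated aprE or tetM reporter mRNAs, which were integrated into the B. subtilis chromosome. Cultures were grown in LB at 37°C between OD600 0.0003 and 0.3. Cleaved RNA was gel-selected, reverse transcribed and barcode-sequenced, as were genomic DNA barcodes, and UMIs were collapsed. Cleaved product abundance is the scaled RNA:gDNA barcode ratio, with the median construct carrying the unmutated site as reference.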

[1] = experiment (reporter, strain, medium): exp 2b: truncated aprE reporter, strain BJT200, cleavage site: cggR-gapA (positions -7 to +36 mutated)
[2] = experiment (reporter, strain, medium): exp 4a: truncated aprE reporter, strain BJT201 with 2% xylose (RNase J1 expressed), cleavage site: cggR-gapA (positions -7 to +36 mutated)
[3] = experiment (reporter, strain, medium): exp 8a: truncated aprE reporter, strain BJT201 with 2% xylose (RNase J1 expressed), cleavage site: glnRA (positions -5 to +31 mutated)
[4] = experiment (reporter, strain, medium): exp 6: tetM reporter, strain 168, cleavage site: cggR-gapA (positions -7 to +36 mutated)

| Sequence | cleaved RNA product abundance [1] | cleaved RNA product abundance [2] | other results |
| --- | --- | --- | --- |
| ACAGACGAAGGAGCCGCAAAGAAGTTATTAAGGGAAGAATAATCCGTCAATATAAATATCTCTCACTTATTTAAA | 0.0722 | – | – |
| ACAGACGAAGGAGCCGCAAAGAAGTTATTAAGGGATGAAAAATCCCTCTATATAAATATCTCTCACTTATTTAAA | – | 0.535 | – |
| ACAGACGAAGGAGCCGCAAAGAAGTTATTAAGAGATGAGTAATCCCTCAATATAAATATCTCTCACTTATTTAAA | – | 0.241 | – |
| ACAGACGAAGGAGCCGCAAAGAAGTTAATAAGGGATGAATTATCCCTCAATATAAATATCTCTCACTTATTTAAA | – | 0.339 | – |
| ACAGACGAAGGAGCCGCAAAGAAGTTATTAAGGGATGAAAAATCCCTCACTATAAATATCTCTCACTTATTTAAA | 0.161 | – | – |
| CGACATGTCCCGCTTCTTTCATTAATACGTTAGCAACTGTTTTGCTATATATATTTACCTTTTAAGAGGAGGAAT | – | – | cleaved RNA product abundance [3]: 1.83 |
| ACAGACGAAGGAGCCGCAAAGAAGTTATTAAGGGCTGAATAACCCCTCAATATAAATATCTCTCACTTATTTAAA | – | 0.424 | – |
| ACAGACGAAGGAGCCGCAAAGAAGTTAATAAGGGATGAATAATCCCTGAATATAAATATCTCTCACTTATTTAAA | – | 0.533 | – |
| ACAGACGAAGGAGCCGCAAACAAGTTATTAAGGGATGAATAATCCCTCAATATAAATATCTCTCACTTATTTAAA | 0.78 | 0.738 | cleaved RNA product abundance [4]: 0.707 |
| ACAGACGAAGGAGCCGCAAAGAAGTTCTTAAGTGATGAATAATCCCTCAATATAAATATCTCTCACTTATTTAAA | 0.0656 | 0.0965 | – |
| ACAGACGAAGGAGCCGCAAAGAAGTTATTAAGGGATAAATAATCCCTCAATATAAATAGCTCTCACTTATTTAAA | – | 0.553 | – |
| ACAGACGAAGGAGCCGCAAAGAAGTTATTAAGGGATGAATAATCCCTTAATATAGATATCTCTCACTTATTTAAA | – | 0.866 | – |
| ACAGACGAAGGAGCCGCAAAGAAGTTATTAAGGGATGAATAAACCCTCAATATAAAAATCTCTCACTTATTTAAA | – | 0.519 | – |
| ACAGACGAAGGAGCCGCATAGAAGTTATTAAGGAATGAATATTCCCTCAATATAAATATCTCTCACTTATTTAAA | – | 0.263 | – |
| ACAGACGAAGGAGCCGCAAAGAAGTTTTTAAGGGATGAATAATCCCTCAATATACATATCTCTCACTTATTTAAA | – | 0.364 | – |
| CGACATGTCCCGCTTCTTTCATTAATCCGTTAGCAACTGTTTTGCTATTTACATCTACCTTTTAAGAGGAGGAAT | – | – | cleaved RNA product abundance [3]: 0.276 |

| Sequence | cleaved RNA product abundance [1] | cleaved RNA product abundance [2] | other results |
| --- | --- | --- | --- |
| ACAGACGAAGGAGCCGCAAAGAAGTTATTAGGGGATGAATAATCCCTCAATATAAATATCTCTCACTTATTTAAA | 0.699 | 0.718 | cleaved RNA product abundance [4]: 0.377 |
| ACAGACGAAGGAGCCGCAAAGAAGTTATTAAGGGATAAATAATCCCTCAAGATAAATATCTCTCACTTATTTAAA | 0.18 | 0.29 | – |
| ACAGACGAAGGAGCCGCAAAGATGTTATTAAGGGATGAATAATCTCTCAATATAAATATCTCTCACTTATTTAAA | – | 0.874 | – |
| CGACATGTCCCGCTTCTTTCATTATTCCGTTAGCAACTATTTTTCTATATACATTTACCTTTTAAGAGGAGGAAT | – | – | cleaved RNA product abundance [3]: 0.956 |
| CGACATGTCCCGCTTCTTTCATTAATCCGTTAGCAAATGTTTTGTTATATACATTTACCTTTTAAGAGGAGGAAT | – | – | cleaved RNA product abundance [3]: 0.554 |
| CGACATGTCCCGCTTCTTTCATTAATCCTTTAGCAACTGTTTTGCAATATACATTTACCTTTTAAGAGGAGGAAT | – | – | cleaved RNA product abundance [3]: 0.453 |
| CGACATGTCCCGCTTCTTTCATTAATCCGTTAGCAGCTGTTTTTCTATATACATTTACCTTTTAAGAGGAGGAAT | – | – | cleaved RNA product abundance [3]: 0.778 |
| ACAGACGAAGGAGCCGCAAAGAAGTTATTAAGGGATGAATAATCCCTGAATATATATATCTCTCACTTATTTAAA | 0.477 | 0.598 | – |
| ACAGACGAAGGAGCCGCAAAGAAGTTATTAAGGGATGAATAATCCCTCAATATAAACCTCTCTCACTTATTTAAA | – | 0.171 | – |
| ACAGACGAAGGAGCCGCAAAGAAGTTATAAAGGGATGAATAATCCCTCAATATATATATCTCTCACTTATTTAAA | 0.359 | 0.58 | – |
| ACAGACGAAGGAGCCGCAAAAAAGTTATTAAGGGATGAATAATCCCTGAATATAAATATCTCTCACTTATTTAAA | – | 0.427 | – |
| ACAGACGAAGGAGCCGCAAAGAATTTATTAAGGGATTAATAATCACTCAATATAAATATCTCTCACTTATTTAAA | – | 0.153 | – |
| ACAGACGAAGGAGCCGCAAAGAAGTTATAAAGTGATGAATAATCCCTCAATATAAATATCTCTCACTTATTTAAA | 0.0907 | 0.117 | – |
| ACAGACGAAGGAGCCGCAAAGAAGTTATTAAGAGATGAATAATCCCTCAATGTAAATATCTCTCACTTATTTAAA | 0.0969 | 0.0609 | – |
| ACAGACGAAGGAGCCGCAAAGAAGTTAATAAGGGATGAATAATTCCTCAATATAAATATCTCTCACTTATTTAAA | 0.178 | 0.198 | – |
